Patent US6512102B1, “Compositions and methods of diagnosis and treatment using casein kinase I” (Chiron Corporation, priority 1998, dated 2003)
Like-named read-outs stand apart in the source and are kept apart here.

What was measured:
[1] = tested on: GSK3; test: In vitro kinase assay on GSK3; assay type: biochemical
Source text: B) Luciferase activity transduced by Dvl-1 was inhibited by CKI lys→arg 38. […] It was immunoprecipitated using anti-HA antibody and mixed with Immunoprecipitated GSK3.

[2] = tested on: Wnt pathway; test: Wnt pathway activation by CKI isoforms (ectopic axis in Xenopus embryos and Lef-1 reporter gene assay); assay type: cell-based
Procedure: There are seven mammalian CKI isoforms (α, β, γ1−3, δ and ε). All these isoforms contain a conserved serine-threonine kinase domain and various amino terminal and carboxyl terminal domains. CKIε and CKIδ the most closely related isoforms have a longer carboxy terminus compared to the other isoforms. […] The activation of the Wnt pathway was analyzed by induction of ectopic axis in Xenopus embryos and the Lef-1 reporter gene assay.
Lef-1 reporter assays were carried out as done as described in Sakanaka et al. (1998) Proc Natl Acad Sci USA. 95:3020-3. For example, 293 cells were seeded at 2×10^5 cells/well in 12-well culture plates. Cells were transfected with 0.2 μg of the luciferase reporter gene, 0.02 μg of Lef-1, 0.03 μg of pTK-β-gal as an internal control, the indicated amount of CKIε, Axin or Wnt-1 cDNA, and pcDNA3.1 vector to a total amount of 0.4 μg of plasmids. Transfection was performed by Lipofectamine (Lifetechnologies Inc. #18324012). Luciferase and β-gal activities were measured 48 h after transfection. Relative light units (RLU) were measured with a luminometer (Analytical Luminescence Laboratory, Monolight 2010).

[3] = tested on: Lef-1 dependent transcription; test: Lef-1 enhancer luciferase reporter assay in Cos cells; assay type: cell-based
Procedure: Combinations of Wnt-1, CKIε, CKI kinase dead variant (lys→arg 38) and Lef-1 were transfected into Cos cells with a luciferase gene driven by multiple copies of Lef enhancer elements. As an internal control of transfection efficiency, the β-galactosidase gene driven by the SV40 promoter was co-transfected in all samples. 24 hours after transfection, cells were lysed and the lysate was tested for luciferase activity. The luciferase activity was normalized with respect to β-galactosidase activity. […] Dorsoanterior index (DAI) grade numbers were assigned to the phenotypes of the embryos. A grade 5 embryo is normal; a grade 3 embryo is cyclopic (one eye); a grade 1 embryo has a tail fin and somites but no head (acephalic); and a grade 0 embryo has no dorsoanterior structures (Kao et al., 1988).
The effect of CKI on Lef-1 dependent transcription in Cos mammalian cells was examined. A luciferase reporter gene driven by multiple copies of the Lef-I enhancer sequence was used. When only Wnt-I or lef-I or CKIε was transfected with the reporter construct, luciferase activity was induced only 2 to 3 fold (FIG. 1A). When Lef-1 was cotransfected with either Wnt-1 or CKIε, luciferase activity was induced 30 or 12 fold respectively.
Luciferase reporter plasmid contains multiple Lef-I enhancer sites upstream of the fos basal promoter. Various DNA plasmids encoding Wnt-1, CKIε , Dvl-1, GSK3 etc. were co-transfected with a luciferase reporter plasmid and a SV40 β-galactosidase plasmid into 24-well Cos cell culture. For each well, 0.5 μg total DNA was in a ratio of 0.08 μg:016 μg:0.02 μg for signaling molecules:luciferase: β-gal. SV40 β-gal construct was used as an internal transfection control, since β-gal activity is independent of the Wnt-1 signaling molecules. Transfection was done using LT1 (5 μl/μg DNA) (Panvera Co. # MIR23 10). Each sample was transfected in triplex repeats to obtain a statistical value. After 24 hours, cells were washed once with PBS and lysed in 50 μl/well lysis buffer supplied with the luciferase assay kit (Promega cat# EI500). 10 μl of each sample was aliquoted into two sets of tubes, one set for the luciferase assay and another for β-gal chemiluminescent reporter assay (Galacto-Light, TROPIX Inc. #BL100G). The result of the luciferase assay was divided by the corresponding β-gal activity, and then averaged.

[4] = tested on: Arm (β-catenin); test: Arm (β-catenin) protein level in stable Drosophila Schneider cells, Western blot; assay type: cell-based
Source text: Drosophila Schneider cell lines were derived that stably express CKIε in the presence or absence of Drosophila Sgg (GSK3) protein. CKIε and sgg (GSK3) gene expression were controlled by a metallothionein promoter which is induced by copper. […] In the cells expressing CKIε and Sgg (GSK3), Arm (β-catenin) protein level is reduced.
CKIε was PCR-cloned into a vector pRmHa-3 containing a copper-inducible promoter (metallothionine). It was co-transfected with pMKK3 containing the neo-gene (G418-resistant gene) into Drosophila Schneider cells. G418 was used for selection of a stable cell line. In addition, stable cell lines containing combinations of CKIε+wt sgg, CKIε+Actsgg, CKIKD, CKIKD+DN Sgg were made. Actsgg is a mutant containing a mutation of Ser9 to Ala. To detect stabilized Arm, cells were plated 16 hours before the copper induction and lysed three hours after the copper induction. Western blots were performed with anti-Arm mAb 7A12.

[5] = target: T1, Axin (Homo sapiens, UniProt O15169); test: Co-immunoprecipitation with Axin in 293 cells; assay type: binding; conditions: both molecules co-expressed in 293 cells
T1 construct: expressed in transfected cells; host or cells: 293 cells
T1 sequence (O15169 whole entry, species assumed): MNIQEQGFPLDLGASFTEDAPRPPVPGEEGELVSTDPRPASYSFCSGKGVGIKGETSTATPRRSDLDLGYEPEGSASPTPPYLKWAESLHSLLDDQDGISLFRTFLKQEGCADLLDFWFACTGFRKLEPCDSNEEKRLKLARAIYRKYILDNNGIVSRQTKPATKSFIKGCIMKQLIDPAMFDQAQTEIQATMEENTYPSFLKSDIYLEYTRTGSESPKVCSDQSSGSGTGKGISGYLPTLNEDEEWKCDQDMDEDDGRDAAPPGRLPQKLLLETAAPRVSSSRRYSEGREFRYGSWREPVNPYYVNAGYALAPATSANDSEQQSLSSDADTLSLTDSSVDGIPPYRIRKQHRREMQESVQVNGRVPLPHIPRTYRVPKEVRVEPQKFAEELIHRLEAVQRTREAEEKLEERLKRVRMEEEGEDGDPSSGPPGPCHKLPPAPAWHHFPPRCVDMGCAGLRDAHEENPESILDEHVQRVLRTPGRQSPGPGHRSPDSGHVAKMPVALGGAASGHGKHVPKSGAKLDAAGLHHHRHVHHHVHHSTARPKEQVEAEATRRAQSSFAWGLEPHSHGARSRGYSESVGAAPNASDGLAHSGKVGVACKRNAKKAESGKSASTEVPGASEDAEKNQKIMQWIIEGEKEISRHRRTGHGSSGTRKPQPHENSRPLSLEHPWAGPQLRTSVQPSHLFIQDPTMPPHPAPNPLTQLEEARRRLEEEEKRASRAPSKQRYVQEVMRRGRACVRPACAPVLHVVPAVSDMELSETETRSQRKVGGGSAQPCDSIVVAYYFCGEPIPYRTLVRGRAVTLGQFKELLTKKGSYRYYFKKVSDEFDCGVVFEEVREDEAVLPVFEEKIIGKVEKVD
Procedure: Interaction of CKI with Axin When Axin was expressed in 293 cells, endogenous CKIε was found in the Axin immune-complex.
Cells were washed with PBS and lysed in buffer (20 mM Tris.HCl, pH 7.5/1 mM EDTA/0. 1% Triton X-100/[…]/1 mM phenylmethylsulfonyl fluoride/10 μg/ml each of aprotinin and leupeptin). For immunoprecipitation, cell lysates were incubated with various antibodies for 4 hours at 4° C., then added Dynabeads M-450 Sheep anti-Mouse IgG (Dynal Inc. #110.01). Enhance chemiluminescence reagents (Amersham Pharmacia Biotech) were used for detection of the immunoblots.

B1: CKIε: mouse casein kinase I ε, SEQ ID NO:1, 416 amino acids, 98.9% identical to human CKIε; expressed from transfected cDNA (protein)
chain: MELRVGNKYRLGRKIGSGSFGDIYLGANIASGEEVAIKLECVKTKHPQLHIESKFYKMMQGGVGIPSIKWCGAEGDYNVMVMELLGPSLEDLFNFCSRKFSLKTVLLLADQMISRIEYIHSKNFIHRDVKPDNFLMGLGKKGNLVYIIDFGLAKKYRDARTHQHIPYRENKNLTGTARYASINTHLGIEQSRRDDLESLGYVLMYFNLGSLPWQGLKAATKRQKYERISEKKMSTPIEVLCKGYPSEFSTYLNFCRSLRFDDKPDYSYLRQLFRNLFHRQGFSYDYVFDWNMLKFGAARNPEDVDRERREHEREERMGQLRGSATRALPPGPPTGATANRLRSAAEPVASTPASRIQQTGNTSPRAISRADRERKVSMRLHRGAPANVSSSDLTGRQEVSRLAASQTSVPFDHLGK
modifications: HA tag; Mus Casein Kinase I epsilon
notes: expressed from transfected cDNA
phosphorylation of GSK3 ([1]; in vitro): phosphorylated purified GSK3 protein as well as immunoprecipitated GSK3 protein | activation of the Wnt pathway [2]: activate the Wnt pathway | induction of transcription ([3]; Wnt-I and CKI without lef-I): did not induce the transcription | luciferase activity induced ([3]; cotransfected with Lef-1, Cos cells): 12 fold | Arm (β-catenin) protein level ([4]; cells expressing CKIε, copper induction): significantly higher than background

B2: Sgg: Drosophila Sgg (GSK3) protein, copper-inducible expression (protein, UniProt P18431 1-514, looked up)
Protein kinase shaggy: MSGRPRTSSFAEGNKQSPSLVLGGVKTCSRDGSKITTVVATPGQGTDRVQEVSYTDTKVIGNGSFGVVFQAKLCDTGELVAIKKVLQDRRFKNRELQIMRKLEHCNIVKLLYFFYSSGEKRDEVFLNLVLEYIPETVYKVARQYAKTKQTIPINFIRLYMYQLFRSLAYIHSLGICHRDIKPQNLLLDPETAVLKLCDFGSAKQLLHGEPNVSYICSRYYRAPELIFGAINYTTKIDVWSAGCVLAELLLGQPIFPGDSGVDQLVEVIKVLGTPTREQIREMNPNYTEFKFPQIKSHPWQKVFRIRTPTEAINLVSLLLEYTPSARITPLKACAHPFFDELRMEGNHTLPNGRDMPPLFNFTEHELSIQPSLVPQLLPKHLQNASGPGGNRPSAGGAASIAASGSTSVSSTGSGASVEGSAQPQSQGTAAAAGSGSGGATAGTGGASAGGPGSGNNSSSGGASGAPSAVAAGGANAAVAGGAGGGGGAGAATAAATATGAIGATNAGGANVTDS
Arm (β-catenin) protein level ([4]; cells expressing CKIε and Sgg (GSK3)): reduced

B3: CKIεΔ: truncated CKIε mutant where the C-terminus was deleted (protein)
chain: MELRVGNKYRLGRKIGSGSFGDIYLGANIASGEEVAIKLECVKTKHPQLHIESKFYKMMQGGVGIPSIKWCGAEGDYNVMVMELLGPSLEDLFNFCSRKFSLKTVLLLADQMISRIEYIHSKNFIHRDVKPDNFLMGLGKKGNLVYIIDFGLAKKYRDARTHQHIPYRENKNLTGTARYASINTHLGIEQSRRDDLESLGYVLMYFNLGSLPWQGLKAATKRQKYERISEKKMSTPIEVLCKGYPSEFSTYLNFCRSLRFDDKPDYSYLRQLFRNLFHRQGFSYDYVFDWNMLKFGAARNPED
modifications: left off: small tags and cut ends
notes: truncated CKIε mutant where the C-terminus was deleted
kinase activity of C-terminally truncated mutant [1]: intact kinase activity | kinase activity of C-terminally truncated mutant ([1]; listed as C-terminally truncated CKIε): has kinase activity | activation of the Wnt pathway [2]: fails to activate the Wnt pathway | Axin binding [5]: bound less Axin

B4: CKIδ: casein kinase I δ isoform (protein, UniProt P48730 1-415, looked up)
Casein kinase I isoform delta: MELRVGNRYRLGRKIGSGSFGDIYLGTDIAAGEEVAIKLECVKTKHPQLHIESKIYKMMQGGVGIPTIRWCGAEGDYNVMVMELLGPSLEDLFNFCSRKFSLKTVLLLADQMISRIEYIHSKNFIHRDVKPDNFLMGLGKKGNLVYIIDFGLAKKYRDARTHQHIPYRENKNLTGTARYASINTHLGIEQSRRDDLESLGYVLMYFNLGSLPWQGLKAATKRQKYERISEKKMSTPIEVLCKGYPSEFATYLNFCRSLRFDDKPDYSYLRQLFRNLFHRQGFSYDYVFDWNMLKFGASRAADDAERERRDREERLRHSRNPATRGLPSTASGRLRGTQEVAPPTPLTPTSHTANTSPRPVSGMERERKVSMRLHRGAPVNISSSDLTGRQDTSRMSTSQIPGRVASSGLQSVVHR
activation of the Wnt pathway [2]: activate the Wnt pathway

B5: CKIα: casein kinase I α isoform (protein, UniProt P48729 2-337, looked up)
Casein kinase I isoform alpha: ASSSGSKAEFIVGGKYKLVRKIGSGSFGDIYLAINITNGEEVAVKLESQKARHPQLLYESKLYKILQGGVGIPHIRWYGQEKDYNVLVMDLLGPSLEDLFNFCSRRFTMKTVLMLADQMISRIEYVHTKNFIHRDIKPDNFLMGIGRHCNKLFLIDFGLAKKYRDNRTRQHIPYREDKNLTGTARYASINAHLGIEQSRRDDMESLGYVLMYFNRTSLPWQGLKAATKKQKYEKISEKKMSTPVEVLCKGFPAEFAMYLNYCRGLRFEEAPDYMYLRQLFRILFRTLNHQYDYTFDWTMLKQKAAQQAASSSGQGQQAQTPTGKQTDKTKSNMKGF
activation of the Wnt pathway [2]: not the case
